For assay [1], the target named is SCARECROW (SCR)-mCherry translational fusion (SCR:SCR-mCherry) (Arabidopsis) (UniProt Q9M384). Put plainly: Cross-Correlation Number and Brightness.
The target is the same in assay [2]. Put plainly: Cross-Correlation Number and Brightness. This is another data set of the same source.
In assay [3] the target is SHORTROOT (SHR)-GFP translational fusion (SHR:SHR-GFP) (Arabidopsis) (UniProt Q9SZF7). Put plainly: Number and Brightness.
Assay [4] concerns the target T1, SCARECROW (SCR)-GFP translational fusion (SCR:SCR-GFP) (Arabidopsis), Q9M384.
T1 chain: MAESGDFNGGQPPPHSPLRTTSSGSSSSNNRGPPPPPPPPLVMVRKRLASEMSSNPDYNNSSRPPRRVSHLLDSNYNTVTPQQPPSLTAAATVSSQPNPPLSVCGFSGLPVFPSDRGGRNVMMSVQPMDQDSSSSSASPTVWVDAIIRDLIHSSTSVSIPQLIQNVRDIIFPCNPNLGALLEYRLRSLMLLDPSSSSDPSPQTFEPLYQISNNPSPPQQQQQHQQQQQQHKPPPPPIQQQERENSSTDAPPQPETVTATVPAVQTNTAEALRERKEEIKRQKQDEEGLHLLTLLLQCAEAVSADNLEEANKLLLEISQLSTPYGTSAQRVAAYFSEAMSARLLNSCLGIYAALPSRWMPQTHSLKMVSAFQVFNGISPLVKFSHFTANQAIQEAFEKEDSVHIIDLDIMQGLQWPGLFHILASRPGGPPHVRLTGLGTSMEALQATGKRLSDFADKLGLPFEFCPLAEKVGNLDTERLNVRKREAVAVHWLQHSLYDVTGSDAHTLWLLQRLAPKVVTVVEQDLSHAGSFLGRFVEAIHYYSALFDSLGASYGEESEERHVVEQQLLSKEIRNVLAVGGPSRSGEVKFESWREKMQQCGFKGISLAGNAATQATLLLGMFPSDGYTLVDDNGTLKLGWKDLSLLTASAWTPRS
Put plainly: Number and Brightness. The settings on record: remark: other sources report otherwise.

Assay [5] addresses T1, SCARECROW (SCR)-GFP translational …. The assay is described as follows: Number and Brightness. The conditions noted are these: remark: other sources report otherwise.

Experimental findings from paper doi:10.1101/439331 are described below.

Where two headings read alike, the source gives them in different places.

In assay [1], “SHORTROOT (SHR)-GFP translational fusion (SHR:SHR-GFP) (from UniProt Q9SZF7 1-531) (natural protein)” gave a binding score of the 2 SHR: 2 SCR complex of 1, a percent of SHR-SCR complexes that are 1 SHR: 1 SCR of more than 90%, a percent of SHR-SCR complexes that are 1 SHR: 2 SCR of less than 5% and a percent of SHR-SCR complexes that are 2 SHR: 1 SCR of 7%. The molecule further registered a percent of SHR-SCR complexes that are 2 SHR: 2 SCR in assay [1] of less than 1%. Besides, in assay [2], the percent of SHR-SCR complexes that are 1 SHR: 1 SCR is more than 90% and the percent of SHR-SCR complexes that are 1 SHR: 2 SCR was determined as 7%.

B1: SHORTROOT (SHR)-GFP translational fusion (SHR:SHR-GFP) (natural protein)
chain: MDTLFRLVSLQQQQQSDSIITNQSSLSRTSTTTTGSPQTAYHYNFPQNDVVEECFNFFMDEEDLSSSSSHHNHHNHNNPNTYYSPFTTPTQYHPATSSTPSSTAAAAALASPYSSSGHHNDPSAFSIPQTPPSFDFSANAKWADSVLLEAARAFSDKDTARAQQILWTLNELSSPYGDTEQKLASYFLQALFNRMTGSGERCYRTMVTAAATEKTCSFESTRKTVLKFQEVSPWATFGHVAANGAILEAVDGEAKIHIVDISSTFCTQWPTLLEALATRSDDTPHLRLTTVVVANKFVNDQTASHRMMKEIGNRMEKFARLMGVPFKFNIIHHVGDLSEFDLNELDVKPDEVLAINCVGAMHGIASRGSPRDAVISSFRRLRPRIVTVVEEEADLVGEEEGGFDDEFLRGFGECLRWFRVCFESWEESFPRTSNERLMLERAAGRAIVDLVACEPSDSTERRETARKWSRRMRNSGFGAVGYSDEVADDVRALLRRYKEGVWSMVQCPDAAGIFLCWRDQPVVWASAWRPT
In assay [3], B1 had a percent homodimer without m4 (scr4 mutant) of less than 1%.

B2: SCARECROW (SCR)-GFP translational fusion (SCR:SCR-GFP), Q9M384 1-653 (natural protein)
chain: T1 chain
As to B2, the percent homodimer in assay [4] came to 17.3%; in assay [5], 6.6%. Besides, the stoichiometry N (commonly the number of molecules, sites or subunits per partner or assembly) in assay [4] worked out at 2.
